Sequences and labels used below:
B1: AlaAlaValboroPro (peptide)
peptide: AAV[boroPro]
B2: Tyrosine-proline-alanine-proline boronic acid (peptide)
peptide: YPA[boroPro]
B3: AlaProProboroPro (peptide)
peptide: APP[boroPro]
B4: ProProProboroPro (peptide)
peptide: PPP[boroPro]
B5: N-Me-Phe-PRO-ALA-PRO boronic acid (peptide)
peptide: [NMeF]PA[boroPro]
B6: GlyProProboroPro (peptide)
peptide: GPP[boroPro]
B7: AlaProValboroPro (peptide)
peptide: APV[boroPro]
B8: GlyProValboroPro (peptide)
peptide: GPV[boroPro]
B9: Phenylalanine-proline-alanine-proline boronic acid (peptide)
peptide: FPA[boroPro]

Where no end group is shown, it is not given here. [ ]: non-standard residue; d: D form. The star is where a group is joined. NMeF = CN[C@@H](Cc1ccccc1)C(=O)O; boroPro = OB(O)[C@@H]1CCCN1*

The target in the test is Dipeptidyl amino peptidase type IV (DPP IV). Put plainly: cell-based or functional assay.
On to B1, for which the half-maximal inhibitory concentration (IC50) at ten minutes, pH 2 was found to be 2 µM and the IC50 at ten minutes, pH 8 turned out to be 25 µM.
The matching figures for B2: 15 nM and 17 nM.
As for B3, the IC50, pH 2 (Tetrapeptide Prodrugs) stood at 8 mM and the IC50 at ten minutes, pH 2 turned out to be 8.3 µM.
B4: the IC50, pH 2 (Tetrapeptide Prodrugs) stood at 10 µM and the IC50 at ten minutes, pH 2 was 10 µM.
For the molecule B5, the IC50 at ten minutes, pH 2 is 2 µM and the IC50 at ten minutes, pH 8 was determined as 2.7 µM.
Turning to B6, the IC50, pH 2 (Tetrapeptide Prodrugs) came to 9 µM; the IC50 at ten minutes, pH 2 was found to be 8.6 µM; the IC50 at ten minutes, pH 8 worked out at 20 µM.
With B7, the IC50, pH 2 (Tetrapeptide Prodrugs) was found to be 20 nM; the IC50, pH 8 (Tetrapeptide Prodrugs) stood at 21 nM; the IC50 at ten minutes, pH 2 was found to be 20 nM; the IC50 at ten minutes, pH 8 is 21 nM.
Turning to B8, the IC50, pH 2 (Tetrapeptide Prodrugs) amounted to 17 nM; the IC50, pH 8 (Tetrapeptide Prodrugs) stood at 46 nM; the IC50 at ten minutes, pH 2 came out at 17 nM; the IC50 at ten minutes, pH 8 turned out to be 46 nM.
For the molecule B9, the IC50 at ten minutes, pH 2 came out at 6 nM and the concentration for half-maximal inhibition (IC50) at ten minutes, pH 8 stood at 8 nM.
